Test results taken from publication PMC4338318.

What was measured:
FLAG-seipin-Myc (human) = FLAG-seipin-Myc (human) (UniProt Q96G97); assay: atomic force microscopy (AFM); complexes isolated by anti-Myc immunoaffinity from co-transfected tsA 201 cells and eluted; tapping mode in air; particle volumes and decorations
[1] = biological target: Seipin-Myc (wild type) (human) (UniProt Q96G97); assay: atomic force microscopy (AFM); complexes isolated by sequential anti-FLAG and anti-Myc immunoaffinity from triply transfected tsA 201 cells; tapping mode in air

| stoichiometry N [1] | Substance | stoichiometry N (FLAG-seipin-Myc (human)) | percent of seipin particles doubly decorated by AGPAT2 plus lipin 1 [1] | percent of seipin particles doubly decorated (FLAG-seipin-Myc (human)) | percent of seipin particles triply decorated (FLAG-seipin-Myc (human)) |
| --- | --- | --- | --- | --- | --- |
| – | FLAG-seipin-Myc (from UniProt Q96G97 1-398) (natural protein) | 12 | – | – | – |
| – | HA-lipin 1α (from UniProt Q14693 1-890) (enzyme) | – | 10.1% | 9% | – |
| – | FLAG-AGPAT2 (from UniProt O15120 24-278) (enzyme) | – | 10.1% | 12.8% | 1% |
| 12 | Seipin-Myc (wild type) (from UniProt Q96G97 1-398) (natural protein) | – | – | – | – |
